According to patent US20230038638A1, “COMPLEMENT FACTOR I-RELATED COMPOSITIONS AND METHODS” (published 2023):

What was measured:
human C4b (human) [1] = target: T1, human C4b (human) (UniProt P0C0L4)
T1 sequence: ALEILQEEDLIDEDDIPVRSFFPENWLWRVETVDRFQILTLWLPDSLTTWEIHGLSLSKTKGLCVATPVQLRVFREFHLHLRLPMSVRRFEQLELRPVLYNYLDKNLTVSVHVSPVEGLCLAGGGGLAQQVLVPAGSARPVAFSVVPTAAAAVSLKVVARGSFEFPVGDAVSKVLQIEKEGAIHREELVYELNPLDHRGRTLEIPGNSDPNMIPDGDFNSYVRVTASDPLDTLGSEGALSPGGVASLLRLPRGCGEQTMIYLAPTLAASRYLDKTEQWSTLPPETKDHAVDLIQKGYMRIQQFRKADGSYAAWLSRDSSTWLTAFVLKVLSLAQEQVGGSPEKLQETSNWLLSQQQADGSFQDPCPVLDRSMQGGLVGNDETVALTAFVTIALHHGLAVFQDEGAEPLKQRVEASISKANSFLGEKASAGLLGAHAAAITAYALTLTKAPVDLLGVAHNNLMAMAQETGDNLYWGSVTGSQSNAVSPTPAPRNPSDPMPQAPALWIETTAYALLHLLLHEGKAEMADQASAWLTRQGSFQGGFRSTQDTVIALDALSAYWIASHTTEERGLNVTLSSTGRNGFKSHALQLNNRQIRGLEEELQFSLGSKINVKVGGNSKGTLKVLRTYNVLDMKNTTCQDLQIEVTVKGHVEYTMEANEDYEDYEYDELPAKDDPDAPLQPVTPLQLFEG

[2] = target: soluble human C3b (human) (UniProt P01024)
human C4b (human) [3] = target: T1, human C4b (human); remark: listed apart in the source
[4] = target: soluble human C3b (human) (UniProt P01024); remark: listed apart in the source

CFI-HSA variant E457S (enzyme)
C4b Screen Ref Fold (fold of reference) (human C4b (human) [1]): 0.81 | iC3b Screen Ref Fold (fold of reference) [2]: 1.07 | C4c EC50 (nM) (human C4b (human) [3]): 428 nM | iC3b EC50 [4]: 21.3 nM

CFI-HSA variant T377G; E457G; E461Q; R462K; F464Y; N531G (enzyme)
C4b Screen Ref Fold (fold of CFI-HSA wild type) (human C4b (human) [1]): 4.5 | iC3b Screen Ref Fold (fold of CFI-HSA wild type) [2]: 2.05 | C4c EC50 (nM) (human C4b (human) [3]): 3.5 nM | iC3b EC50 [4]: 4.2 nM

CFI-HSA variant N422G (enzyme)
C4b Screen Ref Fold (fold of CFI-HSA wild type) (human C4b (human) [1]): 0.88 | iC3b Screen Ref Fold (fold of CFI-HSA wild type) [2]: 1.34 | C4c EC50 (nM) (human C4b (human) [3]): 238 nM | iC3b EC50 [4]: 25.5 nM

CFI-HSA variant P558G; E457G; E461Q; N531G (enzyme)
C4b Screen Ref Fold (fold of CFI-HSA wild type) (human C4b (human) [1]): 3.97 | iC3b Screen Ref Fold (fold of CFI-HSA wild type) [2]: 1.87 | C4c EC50 (nM) (human C4b (human) [3]): 7.1 nM | iC3b EC50 [4]: 5 nM

CFI-HSA variant D420G (enzyme)
C4b Screen Ref Fold (fold of CFI-HSA wild type) (human C4b (human) [1]): 2.71 | iC3b Screen Ref Fold (fold of CFI-HSA wild type) [2]: 2.53 | C4c EC50 (nM) (human C4b (human) [3]): 63.6 nM | iC3b EC50 [4]: 7 nM

CFI-HSA variant G406A (enzyme)
C4b Screen Ref Fold (fold of reference) (human C4b (human) [1]): 1.96 | iC3b Screen Ref Fold (fold of reference) [2]: 0.36 | C4c EC50 (nM) (human C4b (human) [3]): 176 nM | iC3b EC50 [4]: 42.6 nM

CFI-HSA variant K504F (enzyme)
C4b Screen Ref Fold (fold of reference) (human C4b (human) [1]): 0.29 | iC3b Screen Ref Fold (fold of reference) [2]: 0.13 | C4c EC50 (nM) (human C4b (human) [3]): > 1000 nM | iC3b EC50 [4]: 77.5 nM

CFI-HSA variant K504R; E530F; D425R; P558G (enzyme)
C4b Screen Ref Fold (fold of CFI-HSA wild type) (human C4b (human) [1]): 0.02 | iC3b Screen Ref Fold (fold of CFI-HSA wild type) [2]: 2.97 | C4c EC50 (nM) (human C4b (human) [3]): > 1000 nM | iC3b EC50 [4]: 6.2 nM

CFI-HSA variant G406F (enzyme)
C4b Screen Ref Fold (fold of reference) (human C4b (human) [1]): 0.72 | iC3b Screen Ref Fold (fold of reference) [2]: 0.73 | C4c EC50 (human C4b (human) [3]): > 1000 nM | iC3b EC50 [4]: 37.2 nM

CFI-HSA variant K504V (enzyme)
C4b Screen Ref Fold (fold of reference) (human C4b (human) [1]): 0.07 | iC3b Screen Ref Fold (fold of reference) [2]: 0.21 | C4c EC50 (nM) (human C4b (human) [3]): > 1000 nM | iC3b EC50 [4]: 104 nM

CFI-HSA variant E457W (enzyme)
C4b Screen Ref Fold (fold of reference) (human C4b (human) [1]): 0.09 | iC3b Screen Ref Fold (fold of reference) [2]: 0.15 | C4c EC50 (nM) (human C4b (human) [3]): > 1000 nM | iC3b EC50 [4]: 110 nM

CFI-HSA variant E457V (enzyme)
C4b Screen Ref Fold (fold of reference) (human C4b (human) [1]): 0.99 | iC3b Screen Ref Fold (fold of reference) [2]: 0.8 | C4c EC50 (nM) (human C4b (human) [3]): 567 nM | iC3b EC50 [4]: 40.6 nM

CFI-HSA variant K504R; P558S; E457G; E461Q; N531G (enzyme)
C4b Screen Ref Fold (fold of CFI-HSA wild type) (human C4b (human) [1]): 4.03 | iC3b Screen Ref Fold (fold of CFI-HSA wild type) [2]: 2.12 | C4c EC50 (nM) (human C4b (human) [3]): 9 nM | iC3b EC50 [4]: 5.5 nM

CFI-HSA variant G406V (enzyme)
C4b Screen Ref Fold (fold of reference) (human C4b (human) [1]): 1.09 | iC3b Screen Ref Fold (fold of reference) [2]: 0.44 | C4c EC50 (human C4b (human) [3]): > 1000 nM | iC3b EC50 [4]: 43.1 nM

CFI-HSA variant T377G; E416A; K504H (enzyme)
C4b Screen Ref Fold (fold of CFI-HSA wild type) (human C4b (human) [1]): 3.37 | iC3b Screen Ref Fold (fold of CFI-HSA wild type) [2]: 0.77 | C4c EC50 (nM) (human C4b (human) [3]): 47.8 nM | iC3b EC50 [4]: 12 nM

CFI-HSA variant K504R; E530F; E457G; E461Q; N531G (enzyme)
C4b Screen Ref Fold (fold of CFI-HSA wild type) (human C4b (human) [1]): 3.91 | iC3b Screen Ref Fold (fold of CFI-HSA wild type) [2]: 1.8 | C4c EC50 (nM) (human C4b (human) [3]): 16.2 nM | iC3b EC50 [4]: 4.6 nM

CFI-HSA variant K504R; D425R; E457G; E461Q; N531G (enzyme)
C4b Screen Ref Fold (fold of CFI-HSA wild type) (human C4b (human) [1]): 4.19 | iC3b Screen Ref Fold (fold of CFI-HSA wild type) [2]: 1.59 | C4c EC50 (nM) (human C4b (human) [3]): 8.4 nM | iC3b EC50 [4]: 4.2 nM

CFI-HSA variant G406W (enzyme)
C4b Screen Ref Fold (fold of reference) (human C4b (human) [1]): 1.57 | iC3b Screen Ref Fold (fold of reference) [2]: 0.38 | C4c EC50 (human C4b (human) [3]): > 1000 nM | iC3b EC50 [4]: 65.5 nM

CFI-HSA variant Y408Q (enzyme)
C4b Screen Ref Fold (fold of reference) (human C4b (human) [1]): 0.05 | iC3b Screen Ref Fold (fold of reference) [2]: 0.84 | C4c EC50 (nM) (human C4b (human) [3]): 530 nM | iC3b EC50 [4]: 49.1 nM

CFI-HSA variant G406N (enzyme)
C4b Screen Ref Fold (fold of reference) (human C4b (human) [1]): 0.94 | iC3b Screen Ref Fold (fold of reference) [2]: 0.59 | C4c EC50 (human C4b (human) [3]): > 1000 nM | iC3b EC50 [4]: 35.2 nM

CFI-HSA variant E461V (enzyme)
C4b Screen Ref Fold (fold of reference) (human C4b (human) [1]): 4.79 | iC3b Screen Ref Fold (fold of reference) [2]: 2.03 | C4c EC50 (nM) (human C4b (human) [3]): 64.4 nM | iC3b EC50 [4]: 8.9 nM

CFI-HSA variant E416A; K504H (enzyme)
C4b Screen Ref Fold (fold of CFI-HSA wild type) (human C4b (human) [1]): 0.63 | iC3b Screen Ref Fold (fold of CFI-HSA wild type) [2]: 0.59 | C4c EC50 (nM) (human C4b (human) [3]): 168 nM | iC3b EC50 [4]: 20.8 nM

CFI-HSA variant K504R; E530F; D425R; P558S (enzyme)
C4b Screen Ref Fold (fold of CFI-HSA wild type) (human C4b (human) [1]): 0.09 | iC3b Screen Ref Fold (fold of CFI-HSA wild type) [2]: 3 | C4c EC50 (nM) (human C4b (human) [3]): > 1000 nM | iC3b EC50 [4]: 5.2 nM

CFI-HSA variant K504T (enzyme)
C4b Screen Ref Fold (fold of reference) (human C4b (human) [1]): 0.1 | iC3b Screen Ref Fold (fold of reference) [2]: 0.73 | C4c EC50 (nM) (human C4b (human) [3]): > 1000 nM | iC3b EC50 [4]: 43.5 nM

CFI-HSA variant R456N (enzyme)
C4b Screen Ref Fold (fold of reference) (human C4b (human) [1]): 0.19 | iC3b Screen Ref Fold (fold of reference) [2]: 0.56 | C4c EC50 (nM) (human C4b (human) [3]): 920 nM | iC3b EC50 [4]: 60.5 nM

CFI-HSA variant Y408M (enzyme)
C4b Screen Ref Fold (fold of reference) (human C4b (human) [1]): 0.17 | iC3b Screen Ref Fold (fold of reference) [2]: 1.21 | C4c EC50 (nM) (human C4b (human) [3]): 930 nM | iC3b EC50 [4]: 29.1 nM

CFI-HSA variant D425G (enzyme)
C4b Screen Ref Fold (fold of reference) (human C4b (human) [1]): 2.18 | iC3b Screen Ref Fold (fold of reference) [2]: 0.7 | C4c EC50 (human C4b (human) [3]): > 1000 nM | iC3b EC50 [4]: 13.5 nM

CFI-HSA variant E457T (enzyme)
C4b Screen Ref Fold (fold of reference) (human C4b (human) [1]): 1.34 | iC3b Screen Ref Fold (fold of reference) [2]: 1.5 | C4c EC50 (nM) (human C4b (human) [3]): > 1000 nM | iC3b EC50 [4]: 10.4 nM

CFI-HSA variant E416A; N422K; E457G; E461Q; Q467K; N531G (enzyme)
C4b Screen Ref Fold (fold of CFI-HSA wild type) (human C4b (human) [1]): 3.84 | iC3b Screen Ref Fold (fold of CFI-HSA wild type) [2]: 3.05 | C4c EC50 (nM) (human C4b (human) [3]): 4.4 nM | iC3b EC50 [4]: 1.7 nM

CFI-HSA variant D341A (enzyme)
C4b Screen Ref Fold (fold of reference) (human C4b (human) [1]): 0.19 | iC3b Screen Ref Fold (fold of reference) [2]: 0.26 | C4c EC50 (nM) (human C4b (human) [3]): > 1000 nM | iC3b EC50 [4]: 57.2 nM

CFI-HSA variant K504I (enzyme)
C4b Screen Ref Fold (fold of reference) (human C4b (human) [1]): 0.05 | iC3b Screen Ref Fold (fold of reference) [2]: 0.1 | C4c EC50 (nM) (human C4b (human) [3]): > 1000 nM | iC3b EC50 [4]: 176 nM

CFI-HSA variant K504W (enzyme)
C4b Screen Ref Fold (fold of reference) (human C4b (human) [1]): 0.27 | iC3b Screen Ref Fold (fold of reference) [2]: 0.12 | C4c EC50 (nM) (human C4b (human) [3]): > 1000 nM | iC3b EC50 [4]: 48.7 nM

CFI-HSA variant G406L (enzyme)
C4b Screen Ref Fold (fold of reference) (human C4b (human) [1]): 0.92 | iC3b Screen Ref Fold (fold of reference) [2]: 0.82 | C4c EC50 (human C4b (human) [3]): 386 nM | iC3b EC50 [4]: 31.9 nM

CFI-HSA variant T377G; K504H (enzyme)
C4b Screen Ref Fold (fold of CFI-HSA wild type) (human C4b (human) [1]): 3.01 | iC3b Screen Ref Fold (fold of CFI-HSA wild type) [2]: 0.95 | C4c EC50 (nM) (human C4b (human) [3]): 50.1 nM | iC3b EC50 [4]: 15.7 nM

CFI-HSA variant E392G (enzyme)
C4b Screen Ref Fold (fold of CFI-HSA wild type) (human C4b (human) [1]): 1.3 | iC3b Screen Ref Fold (fold of CFI-HSA wild type) [2]: 1.66 | C4c EC50 (nM) (human C4b (human) [3]): 143 nM | iC3b EC50 [4]: 9.6 nM

CFI-HSA variant G406P (enzyme)
C4b Screen Ref Fold (fold of reference) (human C4b (human) [1]): 0.49 | iC3b Screen Ref Fold (fold of reference) [2]: 0.47 | C4c EC50 (human C4b (human) [3]): > 1000 nM | iC3b EC50 [4]: 35.9 nM
